We go through five molecules from patent publication US20250262210A1 (TRUSTEES OF COLUMBIA UNIVERSITY IN THE CITY OF NEW YORK, published 2025).

The target of one assay is T1, LZTR1-FLAG (human, UniProt Q8N653 1-840).
T1 construct: Expressed in HEK 293T, HeLa or U87 cells; used as cell lysate; also called LZTR1 wild type-FLAG; LZTR1 WT; not shown: FLAG tag at the C-terminus
T1 sequence (looked up): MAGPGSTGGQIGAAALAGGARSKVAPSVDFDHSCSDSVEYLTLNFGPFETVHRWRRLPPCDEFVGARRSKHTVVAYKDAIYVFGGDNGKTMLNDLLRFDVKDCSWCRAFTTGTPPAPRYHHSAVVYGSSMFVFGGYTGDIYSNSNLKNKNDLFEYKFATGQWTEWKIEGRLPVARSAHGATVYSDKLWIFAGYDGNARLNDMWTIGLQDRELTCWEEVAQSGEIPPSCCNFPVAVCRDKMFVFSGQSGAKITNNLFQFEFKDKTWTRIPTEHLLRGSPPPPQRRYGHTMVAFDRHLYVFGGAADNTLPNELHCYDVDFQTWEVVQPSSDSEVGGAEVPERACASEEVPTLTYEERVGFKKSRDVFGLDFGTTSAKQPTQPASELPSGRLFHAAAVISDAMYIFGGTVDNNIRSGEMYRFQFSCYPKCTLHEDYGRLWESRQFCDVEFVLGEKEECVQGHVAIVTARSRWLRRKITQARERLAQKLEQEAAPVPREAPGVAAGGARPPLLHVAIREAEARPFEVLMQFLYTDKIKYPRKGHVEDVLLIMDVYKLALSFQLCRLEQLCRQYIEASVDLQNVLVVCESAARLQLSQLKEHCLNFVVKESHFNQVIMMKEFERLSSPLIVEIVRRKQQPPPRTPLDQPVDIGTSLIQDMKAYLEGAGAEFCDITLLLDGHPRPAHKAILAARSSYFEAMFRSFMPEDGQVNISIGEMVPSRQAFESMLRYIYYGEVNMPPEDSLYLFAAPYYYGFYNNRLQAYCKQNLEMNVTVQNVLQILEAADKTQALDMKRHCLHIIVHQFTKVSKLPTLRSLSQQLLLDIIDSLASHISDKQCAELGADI
Nature of the assay: IP/MS, LZTR1 wild type-FLAG, U87. Summed up: (§1)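 Extracted peptides in 3% acetonitrile/0.1% formic acid ran on a 50 cm C18 column into an Orbitrap Fusion, with MaxQuant identification and spectral counting.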

A further assay deals with T2, LZTR1 R810W-FLAG (human, UniProt Q8N653 1-840).
T2 construct: Stably expressed in U87 cells by lentivirus; also called LZTR1-FLAG-R810W; LZTR1 RW; not shown: FLAG tag
T2 sequence (looked up): T1 sequence (looked up) with R810W
Put plainly: IP/MS, LZTR1 R810W-FLAG, U87. In short, it runs like this: as §1

Changes are numbered by the printed parent chain.

B1: UFL1 (other, human, UniProt O94874 2-794, looked up)
chain: ADAWEEIRRLAADFQRAQFAEATQRLSERNCIEIVNKLIAQKQLEVVHTLDGKEYITPAQISKEMRDELHVRGGRVNIVDLQQVINVDLIHIENRIGDIIKSEKHVQLVLGQLIDENYLDRLAEEVNDKLQESGQVTISELCKTYDLPGNFLTQALTQRLGRIISGHIDLDNRGVIFTEAFVARHKARIRGLFSAITRPTAVNSLISKYGFQEQLLYSVLEELVNSGRLRGTVVGGRQDKAVFVPDIYSRTQSTWVDSFFRQNGYLEFDALSRLGIPDAVSYIKKRYKTTQLLFLKAACVGQGLVDQVEASVEEAISSGTWVDIAPLLPTSLSVEDAAILLQQVMRAFSKQASTVVFSDTVVVSEKFINDCTELFRELMHQKAEKEMKNNPVHLITEEDLKQISTLESVSTSKKDKKDERRRKATEGSGSMRGGGGGNAREYKIKKVKKKGRKDDDSDDESQSSHTGKKKPEISFMFQDEIEDFLRKHIQDAPEEFISELAEYLIKPLNKTYLEVVRSVFMSSTTSASGTGRKRTIKDLQEEVSNLYNNIRLFEKGMKFFADDTQAALTKHLLKSVCTDITNLIFNFLASDLMMAVDDPAAITSEIRKKILSKLSEETKVALTKLHNSLNEKSIEDFISCLDSAAEACDIMVKRGDKKRERQILFQHRQALAEQLKVTEDPALILHLTSVLLFQFSTHSMLHAPGRCVPQIIAFLNSKIPEDQHALLVKYQGLVVKQLVSQSKKTGQGDYPLNNELDKEQEDVASTTRKELQELSSSIKDLVLKSRKSSVTEE
With B1, the binding result in the assay with LZTR1-FLAG and in the assay with LZTR1 R810W-FLAG was “binds” throughout.

B2: UTP6 (other, human, UniProt Q9NYH9 1-597, looked up)
chain: MAEIIQERIEDRLPELEQLERIGLFSHAEIKAIIKKASDLEYKIQRRTLFKEDFINYVQYEINLLELIQRRRTRIGYSFKKDEIENSIVHRVQGVFQRASAKWKDDVQLWLSYVAFCKKWATKTRLSKVFSAMLAIHSNKPALWIMAAKWEMEDRLSSESARQLFLRALRFHPECPKLYKEYFRMELMHAEKLRKEKEEFEKASMDVENPDYSEEILKGELAWIIYKNSVSIIKGAEFHVSLLSIAQLFDFAKDLQKEIYDDLQALHTDDPLTWDYVARRELEIESQTEEQPTTKQAKAVEVGRKEERCCAVYEEAVKTLPTEAMWKCYITFCLERFTKKSNSGFLRGKRLERTMTVFRKAHELKLLSECQYKQLSVSLLCYNFLREALEVAVAGTELFRDSGTMWQLKLQVLIESKSPDIAMLFEEAFVHLKPQVCLPLWISWAEWSEGAKSQEDTEAVFKKALLAVIGADSVTLKNKYLDWAYRSGGYKKARAVFKSLQESRPFSVDFFRKMIQFEKEQESCNMANIREYYERALREFGSADSDLWMDYMKEELNHPLGRPENCGQIYWRAMKMLQGESAEAFVAKHAMHQTGHL
On to B2, for which the binding result in the assay with LZTR1-FLAG and in the assay with LZTR1 R810W-FLAG was “binds” in each case.

B3: UMPS (other, human, UniProt P11172 2-480, looked up)
chain: AVARAALGPLVTGLYDVQAFKFGDFVLKSGLSSPIYIDLRGIVSRPRLLSQVADILFQTAQNAGISFDTVCGVPYTALPLATVICSTNQIPMLIRRKETKDYGTKRLVEGTINPGETCLIIEDVVTSGSSVLETVEVLQKEGLKVTDAIVLLDREQGGKDKLQAHGIRLHSVCTLSKMLEILEQQKKVDAETVGRVKRFIQENVFVAANHNGSPLSIKEAPKELSFGARAELPRIHPVASKLLRLMQKKETNLCLSADVSLARELLQLADALGPSICMLKTHVDILNDFTLDVMKELITLAKCHEFLIFEDRKFADIGNTVKKQYEGGIFKIASWADLVNAHVVPGSGVVKGLQEVGLPLHRGCLLIAEMSSTGSLATGDYTRAAVRMAEEHSEFVVGFISGSRVSMKPEFLHLTPGVQLEAGGDNLGQQYNSPQEVIGKRGSDIIIVGRGIISAADRLEAAEMYRKAAWEAYLSRLGV
As for B3, the binding result with LZTR1-FLAG and in the assay with LZTR1 R810W-FLAG was “binds” in each case.

B4: VPS51 (other, human, UniProt Q9UID3 2-782, looked up)
chain: AAAAAAGPSPGSGPGDSPEGPEGEAPERRRKAHGMLKLYYGLSEGEAAGRPAGPDPLDPTDLNGAHFDPEVYLDKLRRECPLAQLMDSETDMVRQIRALDSDMQTLVYENYNKFISATDTIRKMKNDFRKMEDEMDRLATNMAVITDFSARISATLQDRHERITKLAGVHALLRKLQFLFELPSRLTKCVELGAYGQAVRYQGRAQAVLQQYQHLPSFRAIQDDCQVITARLAQQLRQRFREGGSGAPEQAECVELLLALGEPAEELCEEFLAHARGRLEKELRNLEAELGPSPPAPDVLEFTDHGGSGFVGGLCQVAAAYQELFAAQGPAGAEKLAAFARQLGSRYFALVERRLAQEQGGGDNSLLVRALDRFHRRLRAPGALLAAAGLADAATEIVERVARERLGHHLQGLRAAFLGCLTDVRQALAAPRVAGKEGPGLAELLANVASSILSHIKASLAAVHLFTAKEVSFSNKPYFRGEFCSQGVREGLIVGFVHSMCQTAQSFCDSPGEKGGATPPALLLLLSRLCLDYETATISYILTLTDEQFLVQDQFPVTPVSTLCAEARETARRLLTHYVKVQGLVISQMLRKSVETRDWLSTLEPRNVRAVMKRVVEDTTAIDVQVGLLYEEGVRKAQSSDSSKRTFSVYSSSRQQGRYAPSYTPSAPMDTNLLSNIQKLFSERIDVFSPVEFNKVSVLTGIIKISLKTLLECVRLRTFGRFGLQQVQVDCHFLQLYLWRFVADEELVHLLLDEVVASAALRCPDPVPMEPSVVEVICERG
As to B4, the binding result with LZTR1-FLAG and in the assay with LZTR1 R810W-FLAG was “binds” each time.

B5: VPS16 (other, human, UniProt Q9H269 1-839, looked up)
chain: MDCYTANWNPLGDSAFYRKYELYSMDWDLKEELRDCLVAAAPYGGPIALLRNPWRKEKAASVRPVLDIYSASGMPLASLLWKSGPVVSLGWSAEEELLCVQEDGAVLVYGLHGDFRRHFSMGNEVLQNRVLDARIFHTEFGSGVAILTGAHRFTLSANVGDLKLRRMPEVPGLQSAPSCWTVLCQDRVAHILLAVGPDLYLLDHAACSAVTPPGLAPGVSSFLQMAVSFTYRHLALFTDTGYIWMGTASLKEKLCEFNCNIRAPPKQMVWCSRPRSKERAVVVAWERRLMVVGDAPESIQFVLDEDSYLVPELDGVRIFSRSTHEFLHEVPAASEEIFKIASMAPGALLLEAQKEYEKESQKADEYLREIQELGQLTQAVQQCIEAAGHEHQPDMQKSLLRAASFGKCFLDRFPPDSFVHMCQDLRVLNAVRDYHIGIPLTYSQYKQLTIQVLLDRLVLRRLYPLAIQICEYLRLPEVQGVSRILAHWACYKVQQKDVSDEDVARAINQKLGDTPGVSYSDIAARAYGCGRTELAIKLLEYEPRSGEQVPLLLKMKRSKLALSKAIESGDTDLVFTVLLHLKNELNRGDFFMTLRNQPMALSLYRQFCKHQELETLKDLYNQDDNHQELGSFHIRASYAAEERIEGRVAALQTAADAFYKAKNEFAAKATEDQMRLLRLQRRLEDELGGQFLDLSLHDTVTTLILGGHNKRAEQLARDFRIPDKRLWWLKLTALADLEDWEELEKFSKSKKSPIGYLPFVEICMKQHNKYEAKKYASRVGPEQKVKALLLVGDVAQAADVAIEHRNEAELSLVLSHCTGATDGATADKIQRARAQAQKK
For B5, the binding result with LZTR1-FLAG and in the assay with LZTR1 R810W-FLAG was “binds” in each case.
